According to patent publication US12053511B2, “Cystatin C and Cystatin 9 to treat gut inflammation caused by thermal injury” (priority 2016, dated 2024):
Several values for one entry are separate records, joined by “and”; a condition that tells them apart may be missing. Equal values may be shown once.

B1: rCSTC: human recombinant cystatin C (CST3), cysteine proteinase inhibitor; purchased from R&D Systems (protein, UniProt P01034 27-146, looked up)
Cystatin-C: SSPGKPPRLVGGPMDASVEEEGVRRALDFAVGEYNKASNDMYHSRALQVVRARKQIVAGVNYFLDVELGRTTCTKTQPNLDNCPFHDQPHLKRKAFCSFQIYAVPWQGTMTLSKSTCQDA
B2: rCST9: human recombinant cystatin 9, cysteine proteinase inhibitor; purchased from American Research Products, Inc. (protein, UniProt Q5W186 29-159, looked up)
Cystatin-9: WCSEEEMGGNNKIVQDPMFLATVEFALNTFNVQSKEEHAYRLLRVLSSWREDSMDRKWRGKMVFSMNLQLRQTVCRKFEDDIDNCPFQESLELNNVRQGISFPQVHSCGCCMGCGVGTGAADKAIPRDKGK

Legend:
NDM-1 Kp [1] = assay: LD90 NDM-1 Kp pneumonia murine model, survival; type: in vivo, Balb/c mice; conditions: for increased survival of Kp infected mice: single i.p. dose, 50 pg/mouse
From the text: To establish the optimal CST route, timing, and dosage regimen against MDR NDM-1 Kp-induced pneumonia, Balb/c mice (n=10-20 mice/gp) were infected with an i.n. LD90 and treated at various times and doses as depicted in Table 1. Doses included i.n. and/or i.p. single rCST9, rCSTC or a combination of rCST9 and rCSTC. Mice that were infected with NDM-1 Kp but were not treated served as controls. rCST treatments by routes, doses, or as a combined therapy were studied to select an optimal regimen.
Evaluate optimal timing and dosage of rCST-9 and/or PEG-rCST9 administration post-infection. Balb/c mice (n=10-20 mice/gp) were intranasally (i.n.) infected with approximately 1.82×10^8 CFU/mouse of Kp 2146 (as established hereinabove) then treated i.n. or i.p. with rCST9, human recombinant cystatin C (rCSTC) or a combination of rCST9 and rCSTC as depicted in Table 1. Kp infected alone served as controls. […] Therefore, as a comparative control to rCST9, the inventors evaluated the effectiveness of rCSTC against pneumonia using the same doses of 50 and/or 500 pg/mouse.
The potential for rCST9/rCSTC treatment to extend the period before successful antibiotic intervention was initiated was determined. For these evaluations, suboptimal doses of colistin were used to determine the extent of protection afforded by rCSTs as well as to minimize side effects/toxicity caused by this antibiotic (n=10 mice/gp). Doses, timing, and route of colistin were chosen based on efficacy studies of colistin in a mouse model of severe, established MDR pneumonia or a very low dose of colistin then adjusted to suboptimal levels for this study. LD90 NDM-1 Kp-challenged mice were treated with the rCST9/rCSTC 3 d i.p. treatment and then given 2 doses of colistin at 20 mg/kg/day or 1.25 mg/kg/day on day 4 and 5 PI.
Mouse model of pneumonia and CST treatments. Eight-week old female Balb/c mice weighing between 21 and 24 grams (Jackson Laboratories) were housed in an Association for Assessment and Accreditation for Laboratory Animal Care (AAALAC)-approved housing facility and permitted to adjust to their environment for 7 d prior to procedures, receiving free access to food and water throughout the study. All procedures were approved by the University of Texas Medical Branch IACUC and performed humanely with minimal suffering. […] One hour PI, mice were administered an i.n. dose of rCST9/rCSTC (50 pg of each) and then, this group of mice was given an i.p. injection of rCST9/rCSTC (500 pg of each) 3 d PI. A parallel group of infected mice received only a single i.p. dose of rCST9/rCSTC, PEG-rCST9/rCSTC (500 pg of each), or PEG-rCST9 (500 pg) alone 3 d PI. NDM-1-Kp infected mice alone or uninfected mice served as controls. Survival was observed up to 15 days post treatment. Additional groups (n=4 mice/group) of infected and CST-treated mice were euthanized at selected time points (24 h, 72 h, 5 and/or 10 d PI) to harvest lungs. Additional groups were treated with i.n. rCSTs (50 pg of each) as described above but they were euthanized at 30 min, 1 h and 3 h to collect lungs for the quantification of lipid peroxidase by-product, known as malondialdehyde (MDA), as described below.
Additional groups of mice (n=15 mice/group) were treated with the optimal CST treatment regimens of an i.n. dose of rCST9/rCSTC (50 pg of each), followed by an i.p. injection of rCST9/rCSTC (500 pg of each) 3 d PI or the single i.p. dose of rCST9/rCSTC (500 pg of each). At 4 d PI, mice were given 2 separate i.p. injections of colistin (JHP Pharmaceuticals, LLC; colistimethate sodium; 20 mg/kg/mouse or 1.25 mg/kg/day) 8 h apart for 2 d.

NDM-1 Kp [2] = assay: In vitro bacteria viability and growth assay; type: cell-based, Klebsiella pneumoniae BAA-2146; conditions: given individually and in combination
From the text: Anti-microbial activity of rCST9/rCSTC against NDM-1 Kp. […] To address this directly, PrestoBlue® was used to determine the viability of rCST9/rCSTC-treated NDM-1 Kp based in the reagents rapid reduction by metabolically active bacteria. […] The most substantial decrease in bacterial growth occurred with 50, 500, and 1000 pg of rCSTs compared to lower doses of 10 and 25 pg of rCSTs (FIGS. 7A-C).
Bacteria preparation. The MDR New Delhi metallo-beta-lactamase-1 (NDM-1) producing Klebsiella pneumoniae BAA-2146™ was purchased from ATCC and expanded for 18 hours in 10 mL of brain heart infusion (BHI) broth while shaking at 37° C. The overnight culture was pelleted by centrifugation and then suspended in PBS. Serial dilutions were performed to obtain the desired concentration. Ten-fold dilutions were plated on BHI agar to confirm experimental dosage.
In vitro bacteria viability and growth assay. As a measure of NDM-1 Kp viability, aliquots were treated with Prestoblue® cell viability reagent (Invivogen) following exposure to CSTs. […] Following incubation, […] of Prestoblue® reagent was added to each sample and incubated for 1 h before quantification of cell viability via absorbance at 570-600 nm measurement (Bio-Tek; Epoch Model). […] Additionally, 100 μL of cultures were plated on BHI plates to quantify colony-forming units (CFU) following an overnight incubation at 37° C. […]

[3] = test system: monocyte-derived macrophages (MDM) infected with NDM-1-producing Kp; assay: Cytokine secretion from NDM-1 Kp-infected MDM; type: cell-based, human; conditions: rCSTC 50 pg, rCST9 25 or 50 pg, individually and in combination; vs Kp-infected MDM
IL-8 = IL-8 secretion from intestinal epithelial cells exposed to E. coli 083:H1 and/or flagellin; type: cell-based; conditions: after exposure to enteric E. coli 083:H1 and/or flagellin
From the text: (§1) It is known that intestinal leakage of intestinal bacteria and their product occurs following burn injury likely contributing to systemic infection and sepsis.

MIP-1 and IL-8 = assay: Systemic cytokines in gavaged mice given 30% full-thickness burn; type: in vivo, Balb/c mice; conditions: gavage 50 pg/mouse, then 30% full-thickness burn; specifically in the lungs
From the text: as §1

gut microbiome = assay: Gut microbiome in gavaged mice given 30% full-thickness burn; type: in vivo, Balb/c mice; conditions: gavage 50 pg/mouse, then 30% full-thickness burn
From the text: as §1

[4] = 50 pg per mouse, i.n., 1 h pre-infection
[5] = 50 pg per mouse, i.n., 3 d post-infection
[6] = 50 pg per mouse, i.p. then i.p., 1 h and 3 d post-infection
[7] = 500 pg per mouse, i.n., 1 h and 3 d post-infection
[8] = 500 pg per mouse, i.n., 1 h pre-infection

| Molecule | increased % survival of Kp LD90 mice (NDM-1 Kp [1]; [4]) | increased % survival of Kp LD90 mice (NDM-1 Kp [1]; [5]) [%] | increased % survival of Kp LD90 mice (NDM-1 Kp [1]; [6]) [%] | increased % survival of Kp LD90 mice (NDM-1 Kp [1]; [7]) [%] | increased % survival of Kp LD90 mice (NDM-1 Kp [1]; [8]) [%] | increased survival of Kp infected mice (NDM-1 Kp [1]) [%] | replication of NDM-1-producing Kp (NDM-1 Kp [2]) | cytokine secretion from infected MDM [3] | IL-8 secretion from intestinal epithelial cells (IL-8) | systemic MIP-1 and IL-8 secretion (MIP-1 and IL-8) | gut microbiome (gut microbiome) |
| --- | --- | --- | --- | --- | --- | --- | --- | --- | --- | --- | --- |
| B1 | increased survival and 20% | 10 | 5 | 10 | 10 | 15 | inhibited the replication | restrained cytokine secretion | decreased IL-8 secretion | decrease in systemic MIP-1 and IL-8 secretion | preserved the gut microbiome |
| B2 | increased survival and 10% | 10 | 5 | 10 | 10 | 15 | inhibited the replication | restrained cytokine secretion | decreased IL-8 secretion | decrease in systemic MIP-1 and IL-8 secretion | preserved the gut microbiome |
